Measurements from the supplement of paper PMC10567573.

B1: EPB41L3 (parent)
chain: SELGDYDPDECGSDYISEFRFAPN
B2: ANKRD9 (parent)
chain: LLEDMRASEAFHWDERGRAAAYSP

Variants of: B1
Assay: protein stability index of a GFP-peptide fusion (GPS, HEK-293T) (PSI 1-6); higher = more stable
Settings: c terminus: a fixed tail appended
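Further: lentivirally expressed fusions sorted by FACS into six bins by GFP to DsRed ratio, PSI derived from sequencing read proportions per bin multiplied by bin number.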

| Variant | protein stability index |
| --- | --- |
| SELGDYDPDECGSDYISEFGFAPN | 4.79 |
| SELGDYDPDECGSDYISEFYFAPN | 3.75 |
| SELGDYDPDECGSDYISEFVFAPN | 4.4 |
| SELGDYDPDECGSDYISEFPFAPN | 4.81 |
| SELGDYDPDECGSDYISEFSFAPN | 4.68 |
| SELGDYDPDECGSDYISEFLFAPN | 4.02 |
| SELGDYDPDECGSDYISEFFFAPN | 4.09 |
| SELGDYDPDECGSDYISEFNFAPN | 4.54 |
| SELGDYDPDECGSDYISEFTFAPN | 4.18 |
| SELGDYDPDECGSDYISEFWFAPN | 3.92 |
| SELGDYDPDECGSDYISEFMFAPN | 3.92 |
| SELGDYDPDECGSDYISEFEFAPN | 5.02 |
| SELGDYDPDECGSDYISEFDFAPN | 4.72 |
| SELGDYDPDECGSDYISEFKFAPN | 4.53 |
| SELGDYDPDECGSDYISEFHFAPN | 4.32 |
| SELGDYDPDECGSDYISEFQFAPN | 4.7 |
| SELGDYDPDECGSDYISEFIFAPN | 3.75 |
| SELGDYDPDECGSDYISEFAFAPN | 4.25 |
| SELGDYDPDECGSDYISEFCFAPN | 4.56 |
| SELGDYDPDECGSDYISEFRFAPW | 2.45 |
| SELGDYDPDECGSDYISEFRFAPT | 2.12 |
| SELGDYDPDECGSDYISEFRFAPA | 2.6 |
| SELGDYDPDECGSDYISEFRFAPC | 1.64 |
| SELGDYDPDECGSDYISEFRFAPV | 2.55 |
| SELGDYDPDECGSDYISEFRFAPG | 2.33 |

| Variant | protein stability index |
| --- | --- |
| SELGDYDPDECGSDYISEFRFAPD | 2.89 |
| SELGDYDPDECGSDYISEFRFAPS | 1.87 |
| SELGDYDPDECGSDYISEFRFAPE | 3.33 |
| SELGDYDPDECGSDYISEFRFAPK | 1.69 |
| SELGDYDPDECGSDYISEFRFAPR | 2.44 |
| SELGDYDPDECGSDYISEFRFAPL | 2.02 |
| SELGDYDPDECGSDYISEFRFAPH | 1.66 |
| SELGDYDPDECGSDYISEFRFAPP | 2.84 |
| SELGDYDPDECGSDYISEFRFAPI | 2.55 |
| SELGDYDPDECGSDYISEFRFAPM | 1.79 |
| SELGDYDPDECGSDYISEFRFAPF | 2.25 |
| SELGDYDPDECGSDYISEFRFAPY | 2.15 |
| SELGDYDPDECGSDYISEFRFAPQ | 2.09 |
| SELGDYDPDECGSDYISEFRMAPN | 4.43 |
| SELGDYDPDECGSDYISEFRQAPN | 4.97 |
| SELGDYDPDECGSDYISEFRRAPN | 4.64 |
| SELGDYDPDECGSDYISEFRLAPN | 4.61 |
| SELGDYDPDECGSDYISEFRTAPN | 4.87 |
| SELGDYDPDECGSDYISEFRVAPN | 4.52 |
| SELGDYDPDECGSDYISEFREAPN | 4.78 |
| SELGDYDPDECGSDYISEFRNAPN | 4.74 |
| SELGDYDPDECGSDYISEFRHAPN | 4.17 |
| SELGDYDPDECGSDYISEFRYAPN | 4.55 |
| SELGDYDPDECGSDYISEFRGAPN | 5.01 |
| SELGDYDPDECGSDYISEFRKAPN | 5.22 |

| Variant | protein stability index |
| --- | --- |
| SELGDYDPDECGSDYISEFRAAPN | 4.75 |
| SELGDYDPDECGSDYISEFRIAPN | 4.38 |
| SELGDYDPDECGSDYISEFRDAPN | 4.68 |
| SELGDYDPDECGSDYISEFRWAPN | 4.24 |
| SELGDYDPDECGSDYISEFRSAPN | 5.07 |
| SELGDYDPDECGSDYISEFRPAPN | 4.96 |
| SELGDYDPDECGSDYISEFRCAPN | 4.69 |
| SELGDYDPDECGSDYISEFRFAYN | 2.89 |
| SELGDYDPDECGSDYISEFRFAEN | 4.66 |
| SELGDYDPDECGSDYISEFRFAVN | 2.53 |
| SELGDYDPDECGSDYISEFRFAGN | 2.37 |
| SELGDYDPDECGSDYISEFRFAMN | 3.26 |
| SELGDYDPDECGSDYISEFRFAIN | 2.7 |
| SELGDYDPDECGSDYISEFRFAHN | 2.44 |
| SELGDYDPDECGSDYISEFRFAWN | 2.47 |
| SELGDYDPDECGSDYISEFRFASN | 2.51 |
| SELGDYDPDECGSDYISEFRFALN | 2.81 |
| SELGDYDPDECGSDYISEFRFATN | 3.15 |
| SELGDYDPDECGSDYISEFRFARN | 1.53 |
| SELGDYDPDECGSDYISEFRFAAN | 2.48 |
| SELGDYDPDECGSDYISEFRFAFN | 2.96 |
| SELGDYDPDECGSDYISEFRFANN | 2.42 |
| SELGDYDPDECGSDYISEFRFAQN | 2.92 |
| SELGDYDPDECGSDYISEFRFAKN | 2.68 |
| SELGDYDPDECGSDYISEFRFADN | 4 |

| Variant | protein stability index |
| --- | --- |
| SELGDYDPDECGSDYISEFRFACN | 2.12 |
| SELGDYDPDECGSDYISVFRFAPN | 2.06 |
| SELGDYDPDECGSDYISTFRFAPN | 1.94 |
| SELGDYDPDECGSDYISYFRFAPN | 1.67 |
| SELGDYDPDECGSDYISSFRFAPN | 2.15 |
| SELGDYDPDECGSDYISPFRFAPN | 1.66 |
| SELGDYDPDECGSDYISRFRFAPN | 2.11 |
| SELGDYDPDECGSDYISWFRFAPN | 1.99 |
| SELGDYDPDECGSDYISQFRFAPN | 1.53 |
| SELGDYDPDECGSDYISEERFAPN | 5.42 |
| SELGDYDPDECGSDYISETRFAPN | 4.97 |
| SELGDYDPDECGSDYISEPRFAPN | 4.97 |
| SELGDYDPDECGSDYISELRFAPN | 3.84 |
| SELGDYDPDECGSDYISEHRFAPN | 4.85 |
| SELGDYDPDECGSDYISECRFAPN | 4.68 |
| SELGDYDPDECGSDYISEYRFAPN | 4.57 |
| SELGDYDPDECGSDYISEVRFAPN | 4.38 |
| SELGDYDPDECGSDYISEARFAPN | 4.66 |
| SELGDYDPDECGSDYISEGRFAPN | 4.99 |
| SELGDYDPDECGSDYISEKRFAPN | 4.83 |
| SELGDYDPDECGSDYISEMRFAPN | 3.91 |
| SELGDYDPDECGSDYISEQRFAPN | 5.04 |
| SELGDYDPDECGSDYISEDRFAPN | 5.28 |
| SELGDYDPDECGSDYISESRFAPN | 5.13 |
| SELGDYDPDECGSDYISEIRFAPN | 4.67 |

| Variant | protein stability index |
| --- | --- |
| SELGDYDPDECGSDYISENRFAPN | 5.06 |
| SELGDYDPDECGSDYISEWRFAPN | 2.61 |
| SELGDYDPDECGSDYISERRFAPN | 4.78 |
| SELGDYDPDECGSDYISEFRFCPN | 2.59 |
| SELGDYDPDECGSDYISEFRFYPN | 3.51 |
| SELGDYDPDECGSDYISEFRFFPN | 3.5 |
| SELGDYDPDECGSDYISEFRFMPN | 3.48 |
| SELGDYDPDECGSDYISEFRFSPN | 3.33 |
| SELGDYDPDECGSDYISEFRFLPN | 3.73 |
| SELGDYDPDECGSDYISEFRFRPN | 4.12 |
| SELGDYDPDECGSDYISEFRFPPN | 4 |
| SELGDYDPDECGSDYISEFRFTPN | 1.85 |
| SELGDYDPDECGSDYISEFRFIPN | 2.24 |
| SELGDYDPDECGSDYISEFRFNPN | 3.46 |
| SELGDYDPDECGSDYISEFRFEPN | 4.24 |
| SELGDYDPDECGSDYISEFRFKPN | 4.27 |
| SELGDYDPDECGSDYISEFRFQPN | 2.39 |
| SELGDYDPDECGSDYISEFRFDPN | 4.92 |
| SELGDYDPDECGSDYISEFRFHPN | 2.13 |
| SELGDYDPDECGSDYISEFRFWPN | 3.47 |
| SELGDYDPDECGSDYISEFRFGPN | 4.21 |
| SELGDYDPDECGSDYISEFRFVPN | 3.42 |

Variants of: B2
Assay: as above
Settings: c terminus: a fixed tail appended

| Variant | protein stability index |
| --- | --- |
| MLEDMRASEAFHWDERGRAAAYSP | 2.52 |
| VLEDMRASEAFHWDERGRAAAYSP | 2.91 |
| NLEDMRASEAFHWDERGRAAAYSP | 3.97 |
| CLEDMRASEAFHWDERGRAAAYSP | 3.2 |
| RLEDMRASEAFHWDERGRAAAYSP | 3.93 |
| HLEDMRASEAFHWDERGRAAAYSP | 4.71 |
| ALEDMRASEAFHWDERGRAAAYSP | 3.72 |
| PLEDMRASEAFHWDERGRAAAYSP | 4.77 |
| KLEDMRASEAFHWDERGRAAAYSP | 3.4 |
| FLEDMRASEAFHWDERGRAAAYSP | 3.36 |
| YLEDMRASEAFHWDERGRAAAYSP | 3.54 |
| ELEDMRASEAFHWDERGRAAAYSP | 4.29 |
| DLEDMRASEAFHWDERGRAAAYSP | 4.18 |
| WLEDMRASEAFHWDERGRAAAYSP | 3.01 |
| ILEDMRASEAFHWDERGRAAAYSP | 2.44 |
| TLEDMRASEAFHWDERGRAAAYSP | 4.04 |
| QLEDMRASEAFHWDERGRAAAYSP | 4.37 |
| SLEDMRASEAFHWDERGRAAAYSP | 4.22 |
| LDEDMRASEAFHWDERGRAAAYSP | 3.98 |
| LMEDMRASEAFHWDERGRAAAYSP | 2.67 |
| LFEDMRASEAFHWDERGRAAAYSP | 2.53 |
| LAEDMRASEAFHWDERGRAAAYSP | 3.15 |

| Variant | protein stability index |
| --- | --- |
| LREDMRASEAFHWDERGRAAAYSP | 3.27 |
| LKEDMRASEAFHWDERGRAAAYSP | 3.25 |
| LQEDMRASEAFHWDERGRAAAYSP | 3.66 |
| LVEDMRASEAFHWDERGRAAAYSP | 3.17 |
| LIEDMRASEAFHWDERGRAAAYSP | 4.67 |
| LYEDMRASEAFHWDERGRAAAYSP | 1.71 |
| LGEDMRASEAFHWDERGRAAAYSP | 3.74 |
| LEEDMRASEAFHWDERGRAAAYSP | 4.52 |
| LCEDMRASEAFHWDERGRAAAYSP | 4.06 |
| LNEDMRASEAFHWDERGRAAAYSP | 3.3 |
| LPEDMRASEAFHWDERGRAAAYSP | 4.37 |
| LSEDMRASEAFHWDERGRAAAYSP | 3.94 |
| LWEDMRASEAFHWDERGRAAAYSP | 1.9 |
| LHEDMRASEAFHWDERGRAAAYSP | 4.13 |
| LTEDMRASEAFHWDERGRAAAYSP | 3.88 |
| LLNDMRASEAFHWDERGRAAAYSP | 1.32 |
| LLMDMRASEAFHWDERGRAAAYSP | 1.15 |
| LLSDMRASEAFHWDERGRAAAYSP | 1.43 |
| LLHDMRASEAFHWDERGRAAAYSP | 2.19 |
| LLFDMRASEAFHWDERGRAAAYSP | 2.08 |
| LLTDMRASEAFHWDERGRAAAYSP | 2.31 |
| LLQDMRASEAFHWDERGRAAAYSP | 2.38 |

| Variant | protein stability index |
| --- | --- |
| LLDDMRASEAFHWDERGRAAAYSP | 1.92 |
| LLCDMRASEAFHWDERGRAAAYSP | 1.51 |
| LLPDMRASEAFHWDERGRAAAYSP | 4.09 |
| LLADMRASEAFHWDERGRAAAYSP | 2.72 |
| LLRDMRASEAFHWDERGRAAAYSP | 3.42 |
| LLLDMRASEAFHWDERGRAAAYSP | 3.26 |
| LLYDMRASEAFHWDERGRAAAYSP | 1.55 |
| LLKDMRASEAFHWDERGRAAAYSP | 2.49 |
| LLIDMRASEAFHWDERGRAAAYSP | 1.85 |
| LLEKMRASEAFHWDERGRAAAYSP | 2.37 |
| LLEIMRASEAFHWDERGRAAAYSP | 2 |
| LLENMRASEAFHWDERGRAAAYSP | 2.5 |
| LLELMRASEAFHWDERGRAAAYSP | 1.64 |
| LLEGMRASEAFHWDERGRAAAYSP | 2.52 |
| LLEMMRASEAFHWDERGRAAAYSP | 1.44 |
| LLEFMRASEAFHWDERGRAAAYSP | 2 |
| LLEPMRASEAFHWDERGRAAAYSP | 3.91 |
| LLEAMRASEAFHWDERGRAAAYSP | 2.36 |
| LLEHMRASEAFHWDERGRAAAYSP | 2.69 |
| LLECMRASEAFHWDERGRAAAYSP | 2.44 |
| LLEEMRASEAFHWDERGRAAAYSP | 2.03 |
| LLEQMRASEAFHWDERGRAAAYSP | 2.14 |
